# From PMC12589613
# Experiments:
# Assay in all cases: single-molecule TIRF
# MDA5ΔN (human) = settings: biotin on annealed RNA linkers 1 and 2; smTIRF imaging buffer, salt, pH and temperature not given in the material; proteins 3-100 nM, with or without ATP or ADPCP
# MDA5 (human) = settings: biotin on annealed RNA linkers 1 and 2, smTIRF imaging buffer, salt, pH and temperature not given in the material, proteins 3-100 nM, with or without ATP or ADPCP
# MDA5(Q57E) (human) = settings: biotin on annealed RNA linkers 1 and 2; smTIRF imaging buffer, salt, pH and temperature not given in the material; proteins 3-100 nM, with or without ATP or ADPCP
substance,measurement,setting,value
11.6-kb dsRNA,binding signal (frequency of static binding),MDA5ΔN (human),0.105
same,binding signal (frequency of translocation),MDA5ΔN (human),1.42
same,binding signal (frequency of static binding),"MDA5 (human); ADPCP, translocation 0",0.337
same,binding signal (frequency of static binding),MDA5 (human),0.022
same,binding signal (frequency of translocation),MDA5 (human),0.114
same,binding signal (frequency of static binding),"MDA5 (human); no ATP, translocation 0",0.136
same,binding signal (frequency of static binding),MDA5(Q57E) (human),0.086
same,binding signal (frequency of translocation),MDA5(Q57E) (human),0.527
